The record followed here is doi:10.1101/2021.04.01.437942 (bioRxiv, 2021).

The target in this experiment is SARS-CoV-2 RBD, truncated version (residues 333–529) (SARS-CoV-2, UniProt P0DTC2). The experiment can be described thus: crystal structure. The settings on record: both partners purified.

B1: COVA1–16 Fab (Fab, V domains shown)
VH: QVQLVQSGAEVKKPGASVKVSCKASGYTFTSYYMHWVRQAPGQGLEWMGIINSSGGSTSYAQKFQGRVTMTRDTSTSTVYMELSSLRSEDTAVYYCARPPRNYYDRSGYYQRAEYFQHWGQGTLVTVSS
VL: DIQLTQSPSSLSASVGDRVTITCQASQDISNYLNWYQQRPGKAPKLLIYDASNLETGVPSRFSGSGSGTDFTFTISSLQPEDIATYYCQQYDNPPLTFGGGTKLEIK
notes: also called Fab COVA1–16
As for B1, the binding result is recorded as “binds”.
